Test results: patent US20150351390A1, “COMPOSITIONS AND METHODS FOR AUXIN-ANALOG CONJUGATION” (PIONEER HI-BRED INTERNATIONAL, INC., priority 2012, published 2015)

B1: CcGH3: GH3 protein, accession AAS02074 (protein)
chain: MAVDSVLSSPLGPPACEKDAKALQFIEEMTRNADAVQQRVLDEILTRNSQTEYLKRFKLDGVSDRETFKSRIPVVTYEDLQPEIQRIANGDRSPILSAHPISEFLTSSGTSAGERKLMPTIKEELDRRQLLYSLLMPVMNLYVPGLDKGKGLYFLFIKSETKTPGGLLARPVLTSYYKSEHFKSRPHDPYNVYTSPNEAILCADSFQSMYTQMLCGLYEREQVLRLGAVFASGLVRAIRFLQLHWPQLAHDIRTGNLNPQITNLSLCERMGKIMRPNPELADFVAGECCKENWEGIITRIWPKTKYLDVIVTGAMAQYIPTLDYYSGGLPKACTMYAASECYFGLNLNPMCKPSEVSYTIMPNMGYFEFLPHDSTTTNSSPTNLVDLVDVEVGKEYELVITTYAGLYRYRVGDILRVTGFHNSAPQFHFVRRKNVLLSIDADKTDEAELQKAVENASKLLREFNTSVVEYTSYADTKTIPGHYVIYWELLMKDLKNSPSDEVLNKCCLAMEESLNTVYRQGRVACNSIGPLEIRVVKNGTFEELMDYAISRGASINQYKVPRCVNFAPILELLDSRVMSSHFSPSLPQWTPERRR
modifications: Capsicum chinense
B2: MtGH3: GH3 protein, accession ABN09059 (protein, listed as Medicago truncatula)
chain: MPTSLDYDLSQKNKKTLDFIEDITTHADEIQKKVLAEILNRNANVEYLQRHGLNGHTDSETFKKLLPIITYEDIQNDINLIANGDTSPILTSNPISNFLTSSGTSGGERKLMPATEEEFGRRYLLYSYLMPIMSQFIPDLEKGKGMYLMFIKNESKTPGGIKASPVLTNYYKSSHFLNRPYDPYTNFTSPNETVLCLDSYQSMYSQLLCGLIQNNEVLRVGAVFASGLIRAIRFLEKNWRLLCNDIRTGTLDLLITDDSVREAVMKILKPNKNLADFVEGECNKGSWQGIITRLWPNTKYVDVIVTGTMSQYIPTLDYYSNGLPLVCTMYASSECYFGVNLNPLSKPCHVSYTLIPTMCYYEFLPVNRSNCEVNGSIPPSTTKSLGEKKYQEVVDLVDVKLGQEYELVVTTYAGLYRYKVGDVLKVTGFKNKAPQFSFVCRKNVVLSIESDKTDEVELQNAMKNAVTHLAPFEADVAEYTSYADTTTIPGHYVLYWELNLKGSTKIPHSVYEDCCLTIEESLNSVYRQGRVSDKSIGPLEIKIVEQGTFDKLMDYAINLGASINQYKTPRCVKFAPMVELLESRVMAKYFSPKCPKWVPGHKKWNNE
B3: GmGH3-21: GH3 protein, accession CAA42636 (protein)
chain: MAIATCDHDKNAKALQFIEDMTQNTESVQERVLAEILSQNSQTEYLKRFELNGATDRDTFKSKVPVVSYDDLKHDIHRIANGDRSPILCAHPISEFLTSSGTSAGERKLMPTIRQEMDRRQLIFSLPMPVMNQYVTDMDKGKALIFLFTKAEQKTPSGLVARPVSASMYKSDQFKNRPYDPYNVYTSPDEAILCPDSFQSMYTQMLCGLIMRHQVLRVGANFASGLLRSIHLLQLNWAQLSHDISTGTLNPKITDPAIKQRMTQILKPDPELAEFIVKECSGENWERIIPRIWPNTKYVEVVVTGAMAQYVPTLDYYSGGLPLASNIYGSSECFFGINLNPFCNPSDVSYTIMPNMGYFEFLPQDHDDASSSSGSSFTLSRLIDLDDVELGKSYEIVVTTYSGLCRYRVGDILRVTGFHNTAPQFSFVRRKNVLLSIDSDKTDEAELQNAVEKASVLLKEFKTSVVEYTSFADTKSIPGHYVIYWELLMKDSSNAPTTEALEQCCLTMEESLNAVYRQGRVADHSIGPLEIRVVKNGTFEELMDYAISRGASISQYKVPRCVTFTPITELLDSRVESVHFSPSEPHWTPERRR
modifications: Glycine max

Test: LC-MS assay of GH3 conjugation of IAA with Asp or Glu
Format: biochemical
Settings: conjugation of IAA with Asp by recombinant GH3 protein; IAA-Asp product by LC-MS
Procedure, shortened: (§1)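 Kinetic parameters come from Michaelis-Menten fits of initial velocities. Velocities reflect LC-MS quantification, against standards, of Asp or Glu conjugates formed by purified GH3 (44 to 164 μg/mL) with 5 mM ATP and MgCl2 at pH 8.0, 30° C.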

Molecule | kcat (hrs−1) IAA-Asp
B1 | 414.234 h⁻¹
B2 | 337.033 h⁻¹
B3 | 1087.519 h⁻¹

Same assay, conditions: conjugation of IAA with Glu by recombinant GH3 protein; IAA-Glu product by LC-MS

Molecule | kcat (hrs−1) IAA-Glu
B1 | 15.608 h⁻¹
B2 | 11.549 h⁻¹
B3 | 1075.524 h⁻¹

Test: LC-MS assay of GH3 conjugation of 2,4-D with Asp or Glu
Format: biochemical
Settings: conjugation of 2,4-D with Asp by recombinant GH3 protein; 2,4-D-Asp product by LC-MS; 5 mM 2,4-D substrate
Procedure, shortened: as §1

Molecule | kcat (hrs−1) 2,4-D-Asp
B1 | 2.517 h⁻¹
B2 | 1.494 h⁻¹
B3 | 27.468 h⁻¹

Same assay, conditions: conjugation of 2,4-D with Glu by recombinant GH3 protein; 2,4-D-Glu product by LC-MS; 5 mM 2,4-D substrate

Molecule | kcat (hrs−1) 2,4-D-Glu
B1 | 0.577 h⁻¹
B2 | 0.122 h⁻¹
B3 | 22.910 h⁻¹
